First the molecules themselves.
B1: Lin28.2430: neutral control shRNA, SEQ ID NO: 201 (nucleic acid)
chain: TGCTGTTGACAGTGAGCGATGGCCTAGTTGTGTAAATATATAGTGAAGCCACAGATGTATATATTTACACAACTAGGCCACTGCCTACTGCCTCGGA
B2: Mn1.1403: neutral control shRNA, SEQ ID NO: 205 (nucleic acid)
chain: TGCTGTTGACAGTGAGCGCAACGGTACCCTAGACAACCAATAGTGAAGCCACAGATGTATTGGTTGTCTAGGGTACCGTTATGCCTACTGCCTCGGA
B3: Kit.4813: neutral control shRNA, SEQ ID NO: 197 (nucleic acid)
chain: TGCTGTTGACAGTGAGCGATTGGATATTCTTGAAAGTTTATAGTGAAGCCACAGATGTATAAACTTTCAAGAATATCCAAGTGCCTACTGCCTCGGA
B4: Lin28.2186: neutral control shRNA, SEQ ID NO: 199 (nucleic acid)
chain: TGCTGTTGACAGTGAGCGAATGGTTGATAGCTAAAGGAAATAGTGAAGCCACAGATGTATTTCCTTTAGCTATCAACCATCTGCCTACTGCCTCGGA
B5: Myc.2105: shRNA, SEQ ID NO: 148 (nucleic acid)
chain: TGCTGTTGACAGTGAGCGCCTGCCTCAAACTTAAATAGTATAGTGAAGCCACAGATGTATACTATTTAAGTTTGAGGCAGTTGCCTACTGCCTCGGA
B6: Mcl1.1334: shRNA, SEQ ID NO: 139 (also SEQ ID NO: 43) (nucleic acid)
chain: TGCTGTTGACAGTGAGCGAAAGAGTCACTGTCTGAATGAATAGTGAAGCCACAGATGTATTCATTCAGACAGTGACTCTTCTGCCTACTGCCTCGGA
B7: Map2k1.1200: neutral control shRNA, SEQ ID NO: 203 (nucleic acid)
chain: TGCTGTTGACAGTGAGCGAGCCTCTCAGCTCATATGGAATTAGTGAAGCCACAGATGTAATTCCATATGAGCTGAGAGGCCTGCCTACTGCCTCGGA
B8: Map2k1.2337: neutral control shRNA, SEQ ID NO: 204 (nucleic acid)
chain: TGCTGTTGACAGTGAGCGCCAAGATGTTTATCAAATCTAATAGTGAAGCCACAGATGTATTAGATTTGATAAACATCTTGATGCCTACTGCCTCGGA
B9: Lin28.2270: neutral control shRNA, SEQ ID NO: 200 (nucleic acid)
chain: TGCTGTTGACAGTGAGCGCAACGGGACAAATGCAATAGAATAGTGAAGCCACAGATGTATTCTATTGCATTTGTCCCGTTTTGCCTACTGCCTCGGA
B10: Lin28.2180: neutral control shRNA, SEQ ID NO: 198 (nucleic acid)
chain: TGCTGTTGACAGTGAGCGCAGCGTGATGGTTGATAGCTAATAGTGAAGCCACAGATGTATTAGCTATCAACCATCACGCTATGCCTACTGCCTCGGA
B11: Myc.1888: shRNA, SEQ ID NO: 146 (nucleic acid)
chain: TGCTGTTGACAGTGAGCGAGAAACGACGAGAACAGTTGAATAGTGAAGCCACAGATGTATTCAACTGTTCTCGTCGTTTCCTGCCTACTGCCTCGGA
B12: Pcna.566: shRNA, SEQ ID NO: 160 (nucleic acid)
chain: TGCTGTTGACAGTGAGCGATCGGGTGAATTTGCACGTATATAGTGAAGCCACAGATGTATATACGTGCAAATTCACCCGACTGCCTACTGCCTCGGA
B13: Kit.221: neutral control shRNA, SEQ ID NO: 196 (nucleic acid)
chain: TGCTGTTGACAGTGAGCGCCAGATGGACTTTCAAGACCTATAGTGAAGCCACAGATGTATAGGTCTTGAAAGTCCATCTGATGCCTACTGCCTCGGA
B14: Mn1.5760: neutral control shRNA, SEQ ID NO: 207 (nucleic acid)
chain: TGCTGTTGACAGTGAGCGCTTGGTTTAGCAGGAAGAATAATAGTGAAGCCACAGATGTATTATTCTTCCTGCTAAACCAAATGCCTACTGCCTCGGA
B15: Rpa1.1620: shRNA, SEQ ID NO: 175 (also SEQ ID NO: 57) (nucleic acid)
chain: TGCTGTTGACAGTGAGCGCCCGCATGATCTTATCGGCAAATAGTGAAGCCACAGATGTATTTGCCGATAAGATCATGCGGTTGCCTACTGCCTCGGA
B16: Pcna.1186: shRNA, SEQ ID NO: 159 (nucleic acid)
chain: TGCTGTTGACAGTGAGCGAATCAATGATCTTGACGCTAAATAGTGAAGCCACAGATGTATTTAGCGTCAAGATCATTGATGTGCCTACTGCCTCGGA
B17: Kit.2021: neutral control shRNA, SEQ ID NO: 195 (nucleic acid)
chain: TGCTGTTGACAGTGAGCGACACCCTGGTCATTACAGAATATAGTGAAGCCACAGATGTATATTCTGTAATGACCAGGGTGGTGCCTACTGCCTCGGA
B18: Luciferase.1309: neutral control shRNA, SEQ ID NO: 202 (nucleic acid)
chain: TGCTGTTGACAGTGAGCGCCCGCCTGAAGTCTCTGATTAATAGTGAAGCCACAGATGTATTAATCAGAGACTTCAGGCGGTTGCCTACTGCCTCGGA
B19: Rpa3.561: shRNA, SEQ ID NO: 176 (also SEQ ID NO: 61) (nucleic acid)
chain: TGCTGTTGACAGTGAGCGCAAAAGTGATACTTCAATATATTAGTGAAGCCACAGATGTAATATATTGAAGTATCACTTTTATGCCTACTGCCTCGGA
B20: Myc.1891: shRNA, SEQ ID NO: 147 (nucleic acid)
chain: TGCTGTTGACAGTGAGCGCACGACGAGAACAGTTGAAACATAGTGAAGCCACAGATGTATGTTTCAACTGTTCTCGTCGTTTGCCTACTGCCTCGGA
B21: Mn1.2545: neutral control shRNA, SEQ ID NO: 206 (nucleic acid)
chain: TGCTGTTGACAGTGAGCGCCAGCGCGGTTGCAGCCGGTAATAGTGAAGCCACAGATGTATTACCGGCTGCAACCGCGCTGTTGCCTACTGCCTCGGA

The text below walks through data of patent US8895526B2, “Identification of RNAI targets and use of RNAI for rational therapy of chemotherapy-resistant leukemia and other cancers” (Cold Spring Harbor Laboratory, priority 2009, dated 2014).

In the first data set the test system is tet-on competent MLL/AF9+Nras AML. As to the kind of experiment: Pooled negative selection RNAi screening (deep sequencing). The data set is classed as cell-based, mouse. To be noted: deep sequencing reads, On Dox compared to T0. In a few lines: (§1)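 A pool of 1230 tet-regulated shRNAs (TRMPV-type) was retrovirally transduced at mostly single copy and ~1000-fold representation into tet-on MLL/AF9+Nras AML cells or immortalized murine embryonic fibroblasts, then cultured on or off doxycycline. shRNA-expressing cells were FACS-sorted, and shRNA representation was quantified by PCR and deep sequencing of genomic DNA, with depletion on dox compared against t0 and off dox.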
In the case of B1, the “Fold depletion in AML” value was found to be 1.37 Fold.
On the same count and under the same terms, as for B2, the figure is 1.94 Fold.
The same measure, in the same setting: as for B3, the figure is 0.81 Fold; as for B4, 1.43 Fold; as for B5, 9.19 Fold.
Still for that read-out and setting: as for B6, the figure is 104.03 Fold.
With B7, the “Fold depletion in AML” value amounted to 2.26 Fold.
Same read-out and setting: as for B8, the figure is 0.24 Fold; as for B9, 0.22 Fold; as for B10, 1.15 Fold.
Turning to B11, the “Fold depletion in AML” value was found to be 8.48 Fold.
Regarding B12, the “Fold depletion in AML” value amounted to 9.89 Fold.
On the same count and under the same terms, with B13 the figure was 1.19 Fold; with B14, 0.38 Fold; with B15, 2,891.47 Fold.
Regarding B16, the “Fold depletion in AML” value is 51.94 Fold.
The same measure, in the same setting: with B17 the figure was 1.92 Fold; with B18, 1.22 Fold; with B19, 8.81 Fold.
On the same count and under the same terms, as for B20, the figure is 9.05 Fold.
The same measure, in the same setting: with B21 the figure was 0.81 Fold.

A further data set relates to immortalized murine embryonic fibroblasts (Mef). The description is as above. Type of data set: cell-based. To be noted: deep sequencing reads, on dox compared to initial representation. The essentials: as §1
As to B1, the “Fold depletion in Mef” value is reported as 0.89 Fold.
Regarding B2, the “Fold depletion in Mef” value turned out to be 0.77 Fold.
On the same count and under the same terms, as for B3, the figure is 0.84 Fold.
Take B4: the “Fold depletion in Mef” value is given as 1.55 Fold.
In the case of B5, the “Fold depletion in Mef” value stood at 11.70 Fold.
With B6, the “Fold depletion in Mef” value is reported as 3.00 Fold.
On the same count and under the same terms, as for B7, the figure is 1.24 Fold; as for B8, 0.68 Fold.
As to B9, the “Fold depletion in Mef” value stood at 1.10 Fold.
Still for that read-out and setting: as for B10, the figure is 0.80 Fold.
With B11, the “Fold depletion in Mef” value stood at 3.83 Fold.
The same measure, in the same setting: with B12 the figure was 6.15 Fold.
On the same count and under the same terms, with B13 the figure was 0.69 Fold; with B14, 0.91 Fold.
On the same count and under the same terms, with B15 the figure was 10.23 Fold.
For B16, the “Fold depletion in Mef” value was 11.42 Fold.
In the case of B17, the “Fold depletion in Mef” value is recorded as 1.61 Fold.
Still for that read-out and setting: as for B18, the figure is 0.52 Fold.
In the case of B19, the “Fold depletion in Mef” value is 10.63 Fold.
The same measure, in the same setting: as for B20, the figure is 4.62 Fold; as for B21, 0.29 Fold.
